Measurements: patent US20240092934A1 (FAMEWAVE, published 2024)

target: T1, recombinant human CEACAM-1 (R&D Systems cat. no. 2244-CM-050) (human, UniProt P13688 35-428); test: competition ELISA on coated recombinant human CEACAM-1; competitor biotinylated chimeric CM-10 IgG1
T1 construct: Coated on the ELISA plate at 0.5 ug/ml
T1 sequence (looked up): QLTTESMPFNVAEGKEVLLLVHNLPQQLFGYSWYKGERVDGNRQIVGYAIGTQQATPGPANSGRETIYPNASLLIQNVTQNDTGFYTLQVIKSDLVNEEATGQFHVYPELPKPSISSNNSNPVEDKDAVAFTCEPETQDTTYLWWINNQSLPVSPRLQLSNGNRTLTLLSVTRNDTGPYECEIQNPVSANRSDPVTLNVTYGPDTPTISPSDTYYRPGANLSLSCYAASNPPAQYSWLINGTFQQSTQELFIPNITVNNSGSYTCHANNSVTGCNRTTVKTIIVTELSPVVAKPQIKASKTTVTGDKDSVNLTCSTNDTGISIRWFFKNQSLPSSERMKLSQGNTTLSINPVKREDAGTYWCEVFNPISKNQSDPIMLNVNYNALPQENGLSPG
Text: The binding of the biotinylated antibody was detected with streptavidin-HRP (Sigma cat. no. S5512) and TMB substrate (Invitrogen cat. no. 00-2023). The reaction was stopped with 3M HC1, absorbance read at 450 nm on a Dynex Technologies MRX TC II plate reader and the binding curves plotted.

Row | Binder | IC50 | IC50 normalized to CM-10
1 | humanized anti-CEACAM-1 variant VH3/VK2, IgG1 (antibody, V domains shown, Tested as human IgG1 / kappa antibody; only the variable regions are tied to this variant) VH: QVQLVQSGAEVKKPGASVKVSCKASGYAFTNNLIEWVRQAPGQGLEWIGVINPGSGDTNYNEKFKGRATLTADKSINTAYMELSRLRSDDTAVYYCARGDYYGGFAVDYWGQGTTVTVSS VL: DIQMTQSPSSLSASVGDRVTITCRTSQDIGNYLNWYQQKPGKAVKLLIYYTSRLHSGVPSRFSGSGSGTDYTLTISSLQPEDIATYFCQQGKSLPRTFGGGTKVEIK | 0.85 µg/mL | 1.36 ratio to IC50 of chimeric CM-10
2 | humanized anti-CEACAM-1 variant VH1/VK3, IgG1 (antibody, V domains shown, Tested as human IgG1 / kappa antibody; only the variable regions are tied to this variant) VH: QVQLVQSGAELKKPGASVKVSCKASGYAFTNNLIEWVKQAPGQGLEWIGVINPGSGDTNYNEKFKGRATLTADKSINTAYMELSSLTSDDSAVYFCARGDYYGGFAVDYWGQGTSVTVSS VL: DIQMTQSPSSLSASVGDRVTITCRTSQDIGNYLNWYQQKPGKAVKLLIYYTSRLHSGVPSRFSGSGSGTDYTFTISSLQPEDIATYFCQQGKSLPRTFGGGTKVEIK | 0.77 µg/mL | 1.44 ratio to IC50 of chimeric CM-10
3 | humanized anti-CEACAM-1 variant VH1/VK3, IgG4 (S241P) (antibody, V domains shown, Tested as human IgG4 (S241P) / kappa antibody; only the variable regions are tied to this variant) VH: QVQLVQSGAELKKPGASVKVSCKASGYAFTNNLIEWVKQAPGQGLEWIGVINPGSGDTNYNEKFKGRATLTADKSINTAYMELSSLTSDDSAVYFCARGDYYGGFAVDYWGQGTSVTVSS VL: DIQMTQSPSSLSASVGDRVTITCRTSQDIGNYLNWYQQKPGKAVKLLIYYTSRLHSGVPSRFSGSGSGTDYTFTISSLQPEDIATYFCQQGKSLPRTFGGGTKVEIK | 0.54 µg/mL | 1.05 ratio to IC50 of chimeric CM-10
4 | humanized anti-CEACAM-1 variant VH2/VK1, IgG1 (antibody, V domains shown, Tested as human IgG1 / kappa antibody; only the variable regions are tied to this variant) VH: QVQLVQSGAEVKKPGASVKVSCKASGYAFTNNLIEWVKQAPGQGLEWIGVINPGSGDTNYNEKFKGRATLTADKSINTAYMELSRLRSDDTAVYFCARGDYYGGFAVDYWGQGTTVTVSS VL: DIQMTQSPSSLSASVGDRVTITCRTSQDIGNYLNWYQQKPGKAVKLLIYYTSRLHSGVPSRFSGSGSGTDYTLTISSLQQEDIATYFCQQGKSLPRTFGGGTKVEIK | 0.68 µg/mL | 1.29 ratio to IC50 of chimeric CM-10
5 | humanized anti-CEACAM-1 variant VH3/VK1, IgG4 (S241P) (antibody, V domains shown, Tested as human IgG4 (S241P) / kappa antibody; only the variable regions are tied to this variant) VH: QVQLVQSGAEVKKPGASVKVSCKASGYAFTNNLIEWVRQAPGQGLEWIGVINPGSGDTNYNEKFKGRATLTADKSINTAYMELSRLRSDDTAVYYCARGDYYGGFAVDYWGQGTTVTVSS VL: DIQMTQSPSSLSASVGDRVTITCRTSQDIGNYLNWYQQKPGKAVKLLIYYTSRLHSGVPSRFSGSGSGTDYTLTISSLQQEDIATYFCQQGKSLPRTFGGGTKVEIK | 0.71 µg/mL | 1.16 ratio to IC50 of chimeric CM-10
6 | humanized anti-CEACAM-1 variant VH3/VK3, IgG4 (S241P) (antibody, V domains shown, Tested as human IgG4 (S241P) / kappa antibody; only the variable regions are tied to this variant) VH: QVQLVQSGAEVKKPGASVKVSCKASGYAFTNNLIEWVRQAPGQGLEWIGVINPGSGDTNYNEKFKGRATLTADKSINTAYMELSRLRSDDTAVYYCARGDYYGGFAVDYWGQGTTVTVSS VL: DIQMTQSPSSLSASVGDRVTITCRTSQDIGNYLNWYQQKPGKAVKLLIYYTSRLHSGVPSRFSGSGSGTDYTFTISSLQPEDIATYFCQQGKSLPRTFGGGTKVEIK | 0.73 µg/mL | 1.23 ratio to IC50 of chimeric CM-10
7 | humanized anti-CEACAM-1 variant VH1/VK1, IgG4 (S241P) (antibody, V domains shown, Tested as human IgG4 (S241P) / kappa antibody; only the variable regions are tied to this variant) VH: QVQLVQSGAELKKPGASVKVSCKASGYAFTNNLIEWVKQAPGQGLEWIGVINPGSGDTNYNEKFKGRATLTADKSINTAYMELSSLTSDDSAVYFCARGDYYGGFAVDYWGQGTSVTVSS VL: DIQMTQSPSSLSASVGDRVTITCRTSQDIGNYLNWYQQKPGKAVKLLIYYTSRLHSGVPSRFSGSGSGTDYTLTISSLQQEDIATYFCQQGKSLPRTFGGGTKVEIK | 0.78 µg/mL | 1.52 ratio to IC50 of chimeric CM-10
8 | humanized anti-CEACAM-1 variant VH3/VK3, IgG1 (antibody, V domains shown, Tested as human IgG1 / kappa antibody; only the variable regions are tied to this variant) VH: QVQLVQSGAEVKKPGASVKVSCKASGYAFTNNLIEWVRQAPGQGLEWIGVINPGSGDTNYNEKFKGRATLTADKSINTAYMELSRLRSDDTAVYYCARGDYYGGFAVDYWGQGTTVTVSS VL: DIQMTQSPSSLSASVGDRVTITCRTSQDIGNYLNWYQQKPGKAVKLLIYYTSRLHSGVPSRFSGSGSGTDYTFTISSLQPEDIATYFCQQGKSLPRTFGGGTKVEIK | 0.86 µg/mL | 1.37 ratio to IC50 of chimeric CM-10
9 | humanized anti-CEACAM-1 variant VH2/VK3, IgG4 (S241P) (antibody, V domains shown, Tested as human IgG4 (S241P) / kappa antibody; only the variable regions are tied to this variant) VH: QVQLVQSGAEVKKPGASVKVSCKASGYAFTNNLIEWVKQAPGQGLEWIGVINPGSGDTNYNEKFKGRATLTADKSINTAYMELSRLRSDDTAVYFCARGDYYGGFAVDYWGQGTTVTVSS VL: DIQMTQSPSSLSASVGDRVTITCRTSQDIGNYLNWYQQKPGKAVKLLIYYTSRLHSGVPSRFSGSGSGTDYTFTISSLQPEDIATYFCQQGKSLPRTFGGGTKVEIK | 0.71 µg/mL | 1.16 ratio to IC50 of chimeric CM-10
10 | humanized anti-CEACAM-1 variant VH1/VK2, IgG1 (antibody, V domains shown, Tested as human IgG1 / kappa antibody; only the variable regions are tied to this variant) VH: QVQLVQSGAELKKPGASVKVSCKASGYAFTNNLIEWVKQAPGQGLEWIGVINPGSGDTNYNEKFKGRATLTADKSINTAYMELSSLTSDDSAVYFCARGDYYGGFAVDYWGQGTSVTVSS VL: DIQMTQSPSSLSASVGDRVTITCRTSQDIGNYLNWYQQKPGKAVKLLIYYTSRLHSGVPSRFSGSGSGTDYTLTISSLQPEDIATYFCQQGKSLPRTFGGGTKVEIK | 0.7 µg/mL | 1.32 ratio to IC50 of chimeric CM-10
11 | humanized anti-CEACAM-1 variant VH2/VK3, IgG1 (antibody, V domains shown, Tested as human IgG1 / kappa antibody; only the variable regions are tied to this variant) VH: QVQLVQSGAEVKKPGASVKVSCKASGYAFTNNLIEWVKQAPGQGLEWIGVINPGSGDTNYNEKFKGRATLTADKSINTAYMELSRLRSDDTAVYFCARGDYYGGFAVDYWGQGTTVTVSS VL: DIQMTQSPSSLSASVGDRVTITCRTSQDIGNYLNWYQQKPGKAVKLLIYYTSRLHSGVPSRFSGSGSGTDYTFTISSLQPEDIATYFCQQGKSLPRTFGGGTKVEIK | 0.76 µg/mL | 1.21 ratio to IC50 of chimeric CM-10
12 | humanized anti-CEACAM-1 variant VH1/VK1, IgG1 (antibody, V domains shown, Tested as human IgG1 / kappa antibody; only the variable regions are tied to this variant) VH: QVQLVQSGAELKKPGASVKVSCKASGYAFTNNLIEWVKQAPGQGLEWIGVINPGSGDTNYNEKFKGRATLTADKSINTAYMELSSLTSDDSAVYFCARGDYYGGFAVDYWGQGTSVTVSS VL: DIQMTQSPSSLSASVGDRVTITCRTSQDIGNYLNWYQQKPGKAVKLLIYYTSRLHSGVPSRFSGSGSGTDYTLTISSLQQEDIATYFCQQGKSLPRTFGGGTKVEIK | 0.78 µg/mL | 1.46 ratio to IC50 of chimeric CM-10
13 | humanized anti-CEACAM-1 variant VH2/VK2, IgG1 (antibody, V domains shown, Tested as human IgG1 / kappa antibody; only the variable regions are tied to this variant) VH: QVQLVQSGAEVKKPGASVKVSCKASGYAFTNNLIEWVKQAPGQGLEWIGVINPGSGDTNYNEKFKGRATLTADKSINTAYMELSRLRSDDTAVYFCARGDYYGGFAVDYWGQGTTVTVSS VL: DIQMTQSPSSLSASVGDRVTITCRTSQDIGNYLNWYQQKPGKAVKLLIYYTSRLHSGVPSRFSGSGSGTDYTLTISSLQPEDIATYFCQQGKSLPRTFGGGTKVEIK | 0.78 µg/mL | 1.24 ratio to IC50 of chimeric CM-10
14 | humanized anti-CEACAM-1 variant VH1/VK2, IgG4 (S241P) (antibody, V domains shown, Tested as human IgG4 (S241P) / kappa antibody; only the variable regions are tied to this variant) VH: QVQLVQSGAELKKPGASVKVSCKASGYAFTNNLIEWVKQAPGQGLEWIGVINPGSGDTNYNEKFKGRATLTADKSINTAYMELSSLTSDDSAVYFCARGDYYGGFAVDYWGQGTSVTVSS VL: DIQMTQSPSSLSASVGDRVTITCRTSQDIGNYLNWYQQKPGKAVKLLIYYTSRLHSGVPSRFSGSGSGTDYTLTISSLQPEDIATYFCQQGKSLPRTFGGGTKVEIK | 0.7 µg/mL | 1.36 ratio to IC50 of chimeric CM-10
15 | humanized anti-CEACAM-1 variant VH2/VK2, IgG4 (S241P) (antibody, V domains shown, Tested as human IgG4 (S241P) / kappa antibody; only the variable regions are tied to this variant) VH: QVQLVQSGAEVKKPGASVKVSCKASGYAFTNNLIEWVKQAPGQGLEWIGVINPGSGDTNYNEKFKGRATLTADKSINTAYMELSRLRSDDTAVYFCARGDYYGGFAVDYWGQGTTVTVSS VL: DIQMTQSPSSLSASVGDRVTITCRTSQDIGNYLNWYQQKPGKAVKLLIYYTSRLHSGVPSRFSGSGSGTDYTLTISSLQPEDIATYFCQQGKSLPRTFGGGTKVEIK | 0.76 µg/mL | 1.26 ratio to IC50 of chimeric CM-10
16 | humanized anti-CEACAM-1 variant VH2/VK1, IgG4 (S241P) (antibody, V domains shown, Tested as human IgG4 (S241P) / kappa antibody; only the variable regions are tied to this variant) VH: QVQLVQSGAEVKKPGASVKVSCKASGYAFTNNLIEWVKQAPGQGLEWIGVINPGSGDTNYNEKFKGRATLTADKSINTAYMELSRLRSDDTAVYFCARGDYYGGFAVDYWGQGTTVTVSS VL: DIQMTQSPSSLSASVGDRVTITCRTSQDIGNYLNWYQQKPGKAVKLLIYYTSRLHSGVPSRFSGSGSGTDYTLTISSLQQEDIATYFCQQGKSLPRTFGGGTKVEIK | 0.43 µg/mL | 0.84 ratio to IC50 of chimeric CM-10
17 | humanized anti-CEACAM-1 variant VH4/VK1, IgG1 (antibody, V domains shown, Tested as human IgG1 / kappa antibody; only the variable regions are tied to this variant) VH: QVQLVQSGAEVKKPGASVKVSCKASGYAFTNNLIEWVRQAPGQGLEWIGVINPGSGDTNYNEKFKGRATLTADKSISTAYMELSRLRSDDTAVYYCARGDYYGGFAVDYWGQGTTVTVSS VL: DIQMTQSPSSLSASVGDRVTITCRTSQDIGNYLNWYQQKPGKAVKLLIYYTSRLHSGVPSRFSGSGSGTDYTLTISSLQQEDIATYFCQQGKSLPRTFGGGTKVEIK | 0.73 µg/mL | 1.15 ratio to IC50 of chimeric CM-10
18 | humanized anti-CEACAM-1 variant VH3/VK1, IgG1 (antibody, V domains shown, Tested as human IgG1 / kappa antibody; only the variable regions are tied to this variant) VH: QVQLVQSGAEVKKPGASVKVSCKASGYAFTNNLIEWVRQAPGQGLEWIGVINPGSGDTNYNEKFKGRATLTADKSINTAYMELSRLRSDDTAVYYCARGDYYGGFAVDYWGQGTTVTVSS VL: DIQMTQSPSSLSASVGDRVTITCRTSQDIGNYLNWYQQKPGKAVKLLIYYTSRLHSGVPSRFSGSGSGTDYTLTISSLQQEDIATYFCQQGKSLPRTFGGGTKVEIK | 0.69 µg/mL | 1.1 ratio to IC50 of chimeric CM-10
